# Test results: patent publication US20130078247A1 (Boehringer Ingelheim, published 2013)
# Experiments:
# [1] = molecular target: T1, human DLL4, full length, overexpressed on CHO or HEK293 cells (human, UniProt Q9NR61 27-685); experiment: periplasmic extract; FMAT, Notch1/Fc on CHO-hDLL4
# T1 construct: also called CHO-hDLL4; CHO-hDII4
# Text: (§1) All calculations are based on the FL1_total signal which comprises the average of the fluorescence per well times the number of counts per well.
# [2] = molecular target: T2, mouse DLL4, full length, overexpressed on CHO or HEK293 cells (mouse, UniProt Q9JI71 27-686); experiment: periplasmic extract; FMAT, Notch1/Fc on CHO-mDLL4
# T2 construct: whole, on cells; also called CHO-mDLL4; CHO-mDII4
# Text: as §1
# recombinant mouse DLL4 = molecular target: T3, recombinant mouse DLL4 (mouse, UniProt Q9JI71 27-532); experiment: ProteOn off-rate screen, periplasmic extract, mDLL4 on chip
# T3 construct: extracellular domain; also called rmDLL4; mDLL4; not shown: C-terminal His tag
# Method: (§2) In a first cycle, amino acid substitutions are introduced randomly in both framework (FW) and complementary determining regions (CDR) using the error-prone PCR method. […] After a polish step, PCR products are inserted via unique restriction sites into a vector designed to facilitate phage display of the VHH library. […] No selections on murine DLL4 are included as (conservation of) cross-reactivity is assessed at the screening level. Individual mutants are produced as recombinant protein using an expression vector derived from pUC119, which contains the LacZ promoter, a resistance gene for ampicillin, a multiple cloning site and an ompA leader sequence (pAX50). E. coli TG1 cells are transformed with the expression vector library and plated on agar plates (LB+Amp+2% glucose). Single colonies are picked from the agar plates and grown in 1 mL 96-deep-well plates. VHH expression is induced by adding IPTG (1 mM). Periplasmic extracts (in a volume of ˜80 uL) are prepared according to standard methods and screened for binding to recombinant human and mouse DII4 in a ProteOn (BioRad, Hercules, Calif., USA) off-rate assay. […] Periplasmic extract of affinity matured clones is diluted 1/10 and injected across the “analyte channels” A1-A6. An average off-rate is calculated of the wild type clones present in the plate and served as a reference to calculate off-rate improvements.
# recombinant human DLL4 = molecular target: T4, recombinant human DLL4 (human, UniProt Q9NR61 25-522); experiment: ProteOn off-rate screen, periplasmic extract, hDLL4 on chip
# T4 construct: R&D Systems C-terminally His-tagged extracellular domain; also called rhDLL4; hDLL4; not shown: C-terminal His tag
# Method: as §2
# T2 sequence (Q9JI71 27-686): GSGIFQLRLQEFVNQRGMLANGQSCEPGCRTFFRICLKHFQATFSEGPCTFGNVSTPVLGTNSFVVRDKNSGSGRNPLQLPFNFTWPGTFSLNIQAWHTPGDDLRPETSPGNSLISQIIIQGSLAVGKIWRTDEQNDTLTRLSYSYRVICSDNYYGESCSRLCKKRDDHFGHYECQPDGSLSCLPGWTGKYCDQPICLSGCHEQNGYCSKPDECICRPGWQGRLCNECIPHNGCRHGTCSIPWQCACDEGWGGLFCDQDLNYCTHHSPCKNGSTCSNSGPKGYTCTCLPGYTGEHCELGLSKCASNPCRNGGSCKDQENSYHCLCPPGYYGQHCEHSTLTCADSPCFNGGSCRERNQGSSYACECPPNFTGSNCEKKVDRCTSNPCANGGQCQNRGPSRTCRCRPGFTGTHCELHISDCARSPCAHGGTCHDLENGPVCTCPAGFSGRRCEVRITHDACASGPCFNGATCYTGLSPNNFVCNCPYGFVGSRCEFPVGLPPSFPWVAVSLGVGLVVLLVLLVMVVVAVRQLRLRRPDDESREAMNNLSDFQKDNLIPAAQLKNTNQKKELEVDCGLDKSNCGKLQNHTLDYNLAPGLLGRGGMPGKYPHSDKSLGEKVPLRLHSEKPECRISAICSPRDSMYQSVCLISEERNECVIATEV
# T3 sequence (Q9JI71 27-532): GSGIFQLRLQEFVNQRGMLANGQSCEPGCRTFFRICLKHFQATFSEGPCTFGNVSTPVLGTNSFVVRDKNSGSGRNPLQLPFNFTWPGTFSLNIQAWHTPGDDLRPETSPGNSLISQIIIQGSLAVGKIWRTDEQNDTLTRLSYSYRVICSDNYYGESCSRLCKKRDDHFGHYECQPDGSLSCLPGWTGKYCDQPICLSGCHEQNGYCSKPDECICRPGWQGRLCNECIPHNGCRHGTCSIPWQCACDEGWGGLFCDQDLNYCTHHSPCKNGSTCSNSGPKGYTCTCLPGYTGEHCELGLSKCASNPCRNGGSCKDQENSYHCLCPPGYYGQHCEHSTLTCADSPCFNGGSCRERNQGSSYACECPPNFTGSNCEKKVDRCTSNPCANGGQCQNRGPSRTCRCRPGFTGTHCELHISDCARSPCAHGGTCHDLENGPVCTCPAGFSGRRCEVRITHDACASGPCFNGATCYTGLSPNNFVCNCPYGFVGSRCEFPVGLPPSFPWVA
% inhibition [1],% inhibition [2],fold (off-rate improvement over DLLBII101G08) (recombinant mouse DLL4),fold (off-rate improvement over DLLBII101G08) (recombinant human DLL4),Binder
87%,75%,–,–,"DLLBII101H09 (VHH, also called DLLBII101H9; DLL1BII101H09; not shown: C-terminal c-myc and His6 tags) VHH: EVQLVESGGGLVQPGGSLRLSCAASGFTLGYYTIVWFRQAPGKERKGVSCISSRDGSRYYADSVKGRFTISRDNAKNTVYLRMNSLKPEDTAVYYCAAGPDCSSYDYWGQGTQVTVSS"
87%,93%,–,–,"DLLBII83G01 (VHH, also called DLLBII83G1; not shown: C-terminal c-myc and His6 tags) VHH: EVQLVESGGGLVQAGGSLRLSCAASGRTFSNYIMGWFRQAPGKEREFVAGISRYADYTGYADSVKGRFTISRDNVKNTVYLRMNSLKPDDTAVYYCAANEGYCSGYGCYEDSGQYDYWGQGTQVTVSS"
86%,82%,–,–,"DLLBII102G04 (VHH, also called DLLBII102G4; not shown: C-terminal c-myc and His6 tags) VHH: EVQLMESGGGLVQPGGSLRLSCAASGFTFSSYAMSWVRQAPGKGLEWVSRITSGGRTTYRDSVKGRFTISRDNSKNTLYLQMNSLKPEDTALYYCAKARGDIDVYTLSDSRGQGTQVTVSS"
74%,76%,–,–,"DLLBII61F05 (VHH, also called DLLBII61F5; not shown: C-terminal c-myc and His6 tags) VHH: EVQLVESGGGLVQPGGSLRLSCTASGFTFSSYAMSWVRQAPGKGLEWVSFINKDGSDTGYADSVKGRFTISRDNAKNTMYLQMNSLKPEDTAVYFCETRTSRSPRPRGQGTQVTVSS"
–,–,18 fold,19 fold,"DLLBII129A03 (VHH, not shown: C-terminal c-myc tag and (His)6 tag) VHH: EVQLVESGGGLVQAGGSLRLSCAASGRTFSSYAMAWFRQAPGKEREYVAAIRWSGGTAYYADSVQGRFTISRDNAKNTVYLQMNSLRPEDTAVYYCANRAPDTRLRPYLYDYWGQGTQVTVSS"
–,–,26 fold,30 fold,DLLBII129B02 (VHH) VHH: EVQLVESGGGLVQAGGSLSLSCAASGRTFSSYAMAWYRQAPGKEREYVAAIRWSGGTAYYADSVQGRFTISRDNAKNTVYLQMNSLKPEDTAVYYCANRAPDTRLEPYEYDHWGQGTQVTVSS
–,–,20 fold,26 fold,DLLBII129G09 (VHH) VHH: EVQLVESGGGLVQAGGSLRLSCAASGRTFSSYAMAWYRQAPGKEREYVAAIRWSGETAYYADSVQGRFTISRDNAKNTVYLQMNSLKPEDTAVYYCANRAPDTRLEPYLYDHWGQGTQVTVSS
–,–,24 fold,21 fold,DLLBII129E07 (VHH) VHH: EVQLVESGGGLVQAGGSLRLSCSASGRTFSSYAMAWYRQAPGKEREYVAAIRWSGGTAYYPDSVQGRFTISRDNAKNTVYLQMNSLKPEDTAVYYCANRAPDTRLAPYEYDHWGQGTQVTVSS
–,–,26 fold,26 fold,DLLBII129D01 (VHH) VHH: EVQLVESGGGLVQAGGSLRLSCAASGRTFSSYAMAWFRQAPGKEREYVAAIRWSGGTAYYADSVQSRFTITRDNAKNTVYLQMNSLKPEDTAVYYCANRAPDTRLEPYLYDHWGQGTQVTVSS
–,–,26 fold,31 fold,DLLBII129G10 (VHH) VHH: EVQLVESGGGLVQAGGSLRLSCAASGRTFSSYAMAWYRQAPGKEREYVAAIRWSGGTAYYADSVQSRFTISRDNAKNTVYLQMNSLKPEDTAVYYCANRAPDTRLEPYEYDHWGQGTQVTVSS
–,–,18 fold,20 fold,DLLBII129E03 (VHH) VHH: EVQLVESGGGLVQAGGSLRLSCAASGRTFSSYAMAWFRQAPGKDREYVAAIRWSGGTAYYADSVQGRFTISRDNAKNTVYLQMNSLKPEDTAVYYCANRAPDTRLAPYLYDYWGQGTQVTVSS
75%,90%,–,–,"DLLBII112A04 (VHH, also called DLLBII112A4; not shown: C-terminal c-myc and His6 tags) VHH: EVQLVESGGGLVQAGGSLRLSCAAFGRTPYGMGWFRQAPGKEREFVAAITSDGSTNYADSVKGRFTISRDNAKNAVSLQMNSLKPEDTAVYYCTAPYYSDFEGTTTEYDYWGQGTQVTVSS"
85%,75%,–,–,"DLLBII102F08 (VHH, also called DLLBII102F8; not shown: C-terminal c-myc and His6 tags) VHH: EVQLVESGGGLVQTGDSLRLSCAASGSTFSNYRMGWFRQGPGKEREFVAAIGRNGQNTYYTDSVKGRFTVTRDNAKNMVYLQMNSLKPEDSAVYTCAASLRGWDTTRIDYEYWGQGTQVTVSS"
95%,73%,–,–,"DLLBII58A11 (VHH, not shown: C-terminal c-myc and His6 tags) VHH: EVQLVESGGGLVQAGGSLRLSCTTSERTVSRYSMGWFRQAPGKEREAVATISWSGDSTYYADSVKGRFTISRDNTKNTLYLQIDSLKPEDTAVYYCVAKPNLKYGSYWPPRGYDYWGQGTQVTVSS"
87%,–,–,–,"DLLBII47D01 (VHH, also called DLLBII47D1; not shown: C-terminal c-myc and His6 tags) VHH: EVQLVESGGGLVQPGGSLRLSCAASGFTFDDYAIGWFRQAPGKEREGVSCISSSGSTYYADSVKGRFTISRDNAKNTVYLQMNSLKPEDTAVYYCAIAGASSWCFPPGYWGQGTQVTVSS"
72%,97%,–,–,"DLLBII112A03 (VHH, also called DLLBII112A3; not shown: C-terminal c-myc and His6 tags) VHH: EVQLVESGGGLVQPGGSLRLSCAASGIRFSINGMGWYRQAPGKQREAVATITRGGIRDYTDSVKGRFTISRDIARNTVYLQMNNLKPEDSAVYYCNIDIYWGRGTQVTVSS"
86%,78%,–,–,"DLLBII104B05 (VHH, also called DLLBII104B5; DLLBII1040B05; not shown: C-terminal c-myc and His6 tags) VHH: EVQLVESGGGSVQAGGSLRLSCAASGSISRIDVMAWYRQAPGKERELVASISSGGSTNYADSVKGRFTISREYFKNMMYLQMNSLKFEDTAVYYCNADSRRGGVGNFFRSWGQGTQVTVSS"
71%,82%,–,–,"DLLBII80E08 (VHH, also called DLLBII80E8; not shown: C-terminal c-myc and His6 tags) VHH: EVQLVESGGGLVQAGGSLTLSCAASGGTFTTYAMGWFRQAPGKEREFVAAVSRFGVSWDYADSVKGRFTISRDNTANTLKLRMNSLKADDTAVYYCAAGGRSFLPFVPAYWGQGTQVTVSS"
75%,80%,–,–,"DLLBII107C03 (VHH, also called DLLBII107C3; not shown: C-terminal c-myc and His6 tags) VHH: EVQLVESGGGLVQPGGSLRLSCEVSGSIGSVSDMRWYRQAPGLQYELVARITSGSITDYSDSVKGRFTISRDNAKNTVYLQMNSLKPEDTAVYYCNADVQHSAWLKPLTYWGQGTQVTVSS"
79%,77%,–,–,"DLLBII61F07 (VHH, also called DLLBII61F7; not shown: C-terminal c-myc and His6 tags) VHH: EVQLVESGGGLVQAGGSLRLSCAASGRTFSRYAMGWFRQAPGKEREFVAAINWSGGSTYYADSVKGRFTISRDNAKNTVYLQMNSLKPEDTAVYDCAASNYYSVYDDRPVMDYWGQGTQVTVSS"
86%,83%,–,–,"DLLBII104A03 (VHH, also called DLLBII104A3; not shown: C-terminal c-myc and His6 tags) VHH: EVQLVESGGGLVQAGGSLRLSCAASGDIPRIAAMGWYRQAPGKQRELVATVSNAATTRYADSAKGRFTISRDNAKTVSLQMDNLKPEDTGVYYCYSLATTVTPSWVNYWGQGTQVTVSS"
–,83%,–,–,"DLLBII101H05 (VHH, also called DLLBII101H5; not shown: C-terminal c-myc and His6 tags) VHH: EVQLVESGGGSAQAGGSLRLSCAASGRTSSTYAMGWFRQAPGKEHEFVSAIGRGTGATSYGDSVKGRFTISRDNAKNTVYLQMNSLQLEDTGDYYCVAGRGFYHDYSSYEYRGQGTQVTVSS"
81%,71%,–,–,"DLLBII95F02 (VHH, also called DLLBII95F2; not shown: C-terminal c-myc and His6 tags) VHH: EVQLVESGGGSVQAGGSLRLSCAASGRTFSSYAMGWFRQAPGKEREFVAAINWSGGYTYYADSVRGRFTISRDNAKNTVYLQMNSLKPEDTAVYYCAAPAPGSSGYEYDYWGQGTQVTVSS"
85%,78%,–,–,"DLLBII101F01 (VHH, also called DLLBII101F1; not shown: C-terminal c-myc and His6 tags) VHH: EVQLVESGGGLVQAGGSLRLSCAASGRTFSNYAMGWFRQAPGKEREFVAAISWSGGDTYYADSVKGRFTISRDNAKNTVCLQMNSLKPEDTAVYYCAASFQSGAAPGANFYDYWGQGTQVTVSS"
80%,85%,–,–,"DLLBII112E07 (VHH, also called DLLBII112E7; not shown: C-terminal c-myc and His6 tags) VHH: EVQLVESGGGLVQAGGSLRLSCAASGRTVRSYATGWFRQAPGKEREFVAALRWSIGSIASVYYDDSVKGRFTISGDNAENTVYLQMNALKPEDTAIYYCASTTRGRYSALSASAYDYWGQGTQVTVSS"
87%,83%,–,–,"DLLBII104C04 (VHH, also called DLLBII104C4; not shown: C-terminal c-myc and His6 tags) VHH: EVQLVESGGGLVQAGGSLRLSCAAAGSTFSSYVMGWYRQAPGKQRELVAHISTRGITYYADSVKGRFTISRDNAKNTMYLQMNSLKPEDTAVYYCNTRRNFLSNYWGQGTQVTVSS"
